Source: the DeepSol protein solubility set

Assay: soluble on expression in E. coli; label from the status in PepcDB or PDB records

In the case of “MSVDSLPTLFQWARDNLLKEEALAISALEELPIHLFPEMFKVAFTDRHTKVLIAMVSAWPFPCLPVGTLIEDPHLETLKAVLDGLNVLVTGKVHSSRCKLRVLDLRRNVHHDFWSIQTGSHEDNCPAQIVAQKQPVETCPNPRREIPFMVVTDFELTQESFDEWTIYLMQWIQERKSSIHLCCRKLNSCASPVSNVIEIFKLVDLNCILELQLSQWWPEVLEELDPYLEGMNNLHTLMLEGLKPFRFTACEEDQEDEWQSTLPSLLSNFGSLQNLYLNDIYLLEDSLDKWLGCLKTPLKTLSITDCPRLLQSDFECLPNCPNICKLKHLNLNALFLSDVGYEIPGLILEKVTSTLQILELERCGMTDPHFKALMPALSKCSQLLKVSFCHNDISLRVLKTLLCHTAKLSQLTQELYPAPQECYEDYKILKDRFKKLCPELLNILKAKRQPKKVSFTTQTCLKCLHSCHYYYNLEATDCLCQCICQ”, the “soluble on expression in E. coli” value was “not soluble”.

With “GTVQEIMIPAGKAGLVIGKGGETIKQLQERAGVKMILIQDGSQNTNVDKPLRIIGDPYKVQQACEMVMDILRERDQGGFGDRNEYGSRIGGGIDVPVPRHSVGVVIGRSGEMIKKIQNDAGVRIQFKQDDGTGPEKIAHIMGPPDRCEHAARIINDLLQSLRSG” the “soluble on expression in E. coli” value was “soluble”.

In the case of “MGSDKIHHHHHHMLPKWDNSYSVHNAKIDEQHKKLFKLAAKVEVVSDRSVSKNEVKELLAEFFNYMKDHFNDEEKYMQLIGYPNLEEHRKIHKEIIQTMINLIKDIKSTNDLKEKLYIVAKKWLLEHILYEDMKVEKWRSSSLSTDDGGDVSFEAAEDEDNEHPQFYLYTCNCPGKIHDVPYSIHQKIELQGRKFTCKTCKQAIKFYKKYS”, the “soluble on expression in E. coli” value was “not soluble”.

For “MSILKNAGEPVISMRYIPYNGGAVKETWWDRDSDRKRLLISLGTVKPMVDGLELISWVMDSANEVDADIILQLAINARTGLRKLPSNVRLVDWIPMGVFLNGADGFIHHGGAGNTLTALYSGIPQIVFGEGADRSVNAEIVAKRGCGIIPDKHGLTSDLVNRLLYDDSLRFCSDQVAAEMAEQPSPAEIAEVLMRKLKNNGKQL”, the “soluble on expression in E. coli” value was “not soluble”.

In the case of “MLSIIIPVYNEKGNILELTSRIKSALKNNEYEIVFVDDSTDETPKIIESLALKYNNIRLKHRKGKKGLSSAVIDGFKLARGDVLSVMDGDLQHPPEMLESMLFQMKKDTDIVICSRFVLGGKEEGLNIFRKFASFIARLIGKIFLKPLRKISDPTAGFFMLKRKVIKNRDLRAIGWKILIEILVMGDYKRVVELPYSFKRRKHEKSKFTISVQGQYLKQIVSLFIRSKKYNIKLEHHHHHH”, the “soluble on expression in E. coli” value was “soluble”.

In the case of “MGHHHHHHSHMSGRSVPHAHPATAEYEFANPSRLGEQRFGEGLLPEEILTPTLYHGYYVRPRAAPAGEGSRAGASELRLSEGKFQAFLDVSHFTPDEVTVRTVDNLLEVSARHPQRLDRHGFVSREFCRTYVLPADVDPWRVRAALSHDGILNLEAPRGGRHLDTEVNEVYISLLPAPPDPEEEEEAAIVEP”, the “soluble on expression in E. coli” value was “not soluble”.

For “MIDMALTDDIILLGQVPLFAGFSDDQLRLIAFGAERRRVSAGQILFREHSPAECAFAVTSGHFELFTAGRDGKPLLQATPGKGALLSELALFTLCERKFTAVAVEDSEVIRITRILFHRLVEEFPEVADIVSARIRDNIAALAAGAARLQNRFV”, the “soluble on expression in E. coli” value was “not soluble”.

For “MGHHHHHHSHYPPIEFDKYKCKNSEDFYLFVGRLWHEKRPEEAIRGCIKAKKKIVVIGSGYLEKYLRDKYGKNPYVEIKGFVSEEEKVDLLASCKAVIYPCIAEDFGIVPIEAFASGKPVIADNSGFPPYVVNEERGIITDCSNPDNIAKAIEELEKKKYDPDKIREFAKQF”, the “soluble on expression in E. coli” value was “soluble”.

In the case of “MSRRGGAPSRPPRPPIRYVATAPKPSRVVTRSRPEGVRWLRADGTPNWSQRVRRLPGDAKELASRPAVSVHKSAPILSAAEKIASHRVRGLVVIKGSGDAVLEGILLATDLVNYLGGGDYFQIVENRHRDSIYSALRKEVVATIMNRHPIAVSVSDDLDTILRIMVGEGIGFLPVLYDDGTLHGVITERNILGRIADIP”, the “soluble on expression in E. coli” value was “not soluble”.

With “MEETRPIDGLTDEDIREILTRYKKIALVGASPKPERDANIVMKYLLEHGYDVYPVNPKYEEVLGRKCYPSVLDIPDKIEVVDLFVKPKLTMEYVEQAIKKGAKVVWFQYNTYNREASKKADEAGLIIVANRCMMREHERLLGEK” the “soluble on expression in E. coli” value was “soluble”.

In the case of “MSKALASDEKDDWITHLKAISNVFTQVCTLSASEESAKKLAIKEREECLQELVELRAIAEAHDDVIQQFHLLLAANHQGDATSRQIFNDMKQEVGDNMERIQEHRLVEAKLNVEKRRNERMAKHINEVSKKSVMHLMATRFYARELAAMRQMMDLVRNAATIESAVKSKLWDEIEKENRLLRLNTLWLINRINSSDLGDAAFENGDDWQSSPRLVILMREHINQGLGLEITGGCDQFRPVVVTGKLKRSMADDDQLRVNDRILAIDGTFVTNTTTHAEVMEMLENESAKDFISLIVSQFDPTKYHEAHPNGKCHKFVSTPISGKADSGEDV”, the “soluble on expression in E. coli” value was “not soluble”.

In the case of “MADPNWAYAPPTNYYADHSIAKPIMISGGHPSQDQGHSPKSESFGQSVTTAFNGMVDNLVGSPSSSVQQRNYFTTTPFPISRSPNDRNDDKIMGNGSYGVPIPIPQDGVPQGTPDFQMTPFLQQGGHLIGGSPNGPVQVSGNWYSGGAGIFSTMQQADPSNGMPGMAAEFVNNENGMPGPNGMHQQAMISGSPPFPYQNMMNLTTSFGAMGLGPQQIQQRDPQMFQQPILHEPIQGMAQNGFGQQVFFTQMQNQQHPQGQAQQQLQQLAQQHQQQQNSQQFFGQGPNGMGNGGVMNDWSQRSFGMPQQQAQQNGLPPNFSQNPPRRRGPEDPNGQTPKTLQDIKNNVIEFAKDQHGSRFIQQKLERASLRDKAAIFTPVLENAEELMTDVFGNYVIQKFFEFGNNEQRNQLVGTIRGNVMKLALQMYGCRVIQKALEYVEEKYQHEILGEMEGQVLKCVKDQNGNHVIQKVIERVEPERLQFIIDAFTKNNSDNVYTLSVHPYGCRVIQRVLEYCNEEQKQPVLDALQIHLKQLVLDQYGNYVIQHVIEHGSPSDKEQIVQDVISDDLLKFAQHKFASNVIEKCLTFGGHAERNLIIDKVCGDPNDPSPPLLQMMKDPFANYVVQKMLDVADPQHRKKITLTIKPHIATLRKYNFGKHILLKLEKYFAKQAPANSSNSSSNDQIYEHSPFDIPLGADFSNHPF”, the “soluble on expression in E. coli” value was “not soluble”.

In the case of “QMPQPLAYAQALLAQFASLARAVNGAQLLGDFVRSLAELSGCELSQLYLLDATHKCLKMRAECLDGTLQPREAASLPVDYNGEQLLQFALCQNRVVCLGELSGSLHETSFLPTQSTPWQSLLCVPVVNHQQAVEGLLLCASRRHVDLQGFADSLGQFGSFALGQLNLLQRLHKPADEVRPAGITMPSVSGYG”, the “soluble on expression in E. coli” value was “not soluble”.

With “MGHHHHHHSHMADTLAILNEFLLERSKREAEEENQIANKTGKDAQFEEDWQLSQFWYSTETKHALRDVVRKLLAERTKDSGDFSIALLSCPSLYKDIREIHDTVHIFEFDKRFEAYGTDFVHYDLNCVGSNPDYLKEHHQQYDLIVADPPF” the “soluble on expression in E. coli” value was “soluble”.

For “MPVDRILEAELAVEQKSDQGVEGPGGTGGSGSSPNDPVTNICQAADKQLFTLVEWAKRIPHFSSLPLDDQVILLRAGWNELLIASFSHRSIDVRDGILLATGLHVHRNSAHSAGVGAIFDRVLTELVSKMRDMRMDKTELGCLRAIILFNPDAKGLSNPSEVEVLREKVYASLETYCKQKYPEQQGRFAKLLLRLPALRSIGLKCLEHLFFFKLIGDTPIDTFL”, the “soluble on expression in E. coli” value was “soluble”.

In the case of “MSVKMKKCSREDLQTLQQLSIETFNDTFKEQNSPENMKAYLESAFNTEQLEKELSNMSSQFFFIYFDHEIAGYVKVNIDDAQSEEMGAESLEIERIYIKNSFQKHGLGKHLLNKAIEIALERNKKNIWLGVWEKNENAIAFYKKMGFVQTGAHSFYMGDEEQTDLIMAKTLILEHHHHHH”, the “soluble on expression in E. coli” value was “soluble”.

For “MGSDKIHHHHHHMSEKTLLELPKKFMEALMAPFIGREEEAKVITLALLSKEHVILIGEPGTAKSALARRAAELLNAKFFMYLLTKYTEPAELFGALDINALKDGQYKRITKDRLPESQIAFLDEIFNANSAILNALLSLLNERVIYDGYNVIKVPLRTLISASNRVPDEPELEALYDRLLLRHYARPVGEELWKQLLDATWEIEFTNRWAVKEPIMNIEHLDKLYSYLSQVDLSGVKNKLLKLYAMLEEKGIHLSDRRKGKVLKVVSAHAILNSRLKATEEDLIVLKYIAPREIDDFEKVAALLSEELKTPIKYMKELNEIYNNIKEAAKYVEAANESDPRLIELIRSLRATRDRIVALGKESGDEKVEEFSKEVLSEIDKLIEKVARKLGIYP”, the “soluble on expression in E. coli” value was “not soluble”.

In the case of “METKDLIVIGGGINGAGIAADAAGRGLSVLMLEAQDLACATSSASSKLIHGGLRYLEHYEFRLVSEALAEREVLLKMAPHIAFPMRFRLPHRPHLRPAWMIRIGLFMYDHLGKRTSLPGSTGVRFGADSVLKPEIVRGFEYSDCWVDDARLVLANAQMVVRKGGEVLTRTRATAARRENGLWIVEAEDIDTGKKYVWQARGLVNATGPWVKQFFDEGMHLPSPYGIRLIKGSHIVVPRVHNQKQAYILQNEDKRIVFVIPWMEEFSIIGTTDVEYKGDPKAVKIEESEINYLLKVYNAHFQKQLGRDDIVWTYSGVRPLCDDESDSPQAITRDYTLDIHDENGKAPLLSVFGGKLTTYRKLAEHAMEKLASYYPGIGPAWTKTCVLPGGDIDGSREDYAAKLRRRYPFLTESLARHYSRTYGSNTEWILGEATSLLDLGEDFGHEFYEAELKYLVDHEWVRRTEDAIWRRTKEGMWLTAEQQSRITQWLAAYVEKHQLSMASLEHHHHHH”, the “soluble on expression in E. coli” value was “soluble”.

In the case of “MKYNTMNNDEIILSLCARLKETRLSLSMTQQQLADRAHVGIATIKRIEKGGGLNLDTLISLLRALDKLHNLDAVLFESELRNFHESYEGGEGSGRLQVRQQAADLNNKSSAPQSEEVNYSAALENSLCW”, the “soluble on expression in E. coli” value was “not soluble”.

In the case of “EEYSKAELVVREYVASEGREFFISFEIPEYDALVGFVRLRFPKEPFIEVLRDAALIRELHVYGRAVPIGQSSDAFQHRGFGERLLKEAEEIAKEEYDRIAVISGVGVRDYYRKLGYRLRQGYMVKKL”, the “soluble on expression in E. coli” value was “not soluble”.

For “RGSHHHHHHGSAVQVTFTVQKGSDPKKLVLDIKYTRPGDSLAEVELRQHGSEEWEPLTKKGNVWEVKSSKPLVGPFNFRFMSKGGMRNVFDEVIPTAFSIGKTYKPEE”, the “soluble on expression in E. coli” value was “soluble”.

In the case of “MSYTAEMIIRLREEKKEMRNRDFAISIGISEAELIAAYCTIGKAKRLKTDIAVLLENAPQLGTVMALTRNEHAVHEITGCFEKIVQNQHVLLTLGEIDLRIFAKQWKFCFEYEAIVLGKPTKSLHFFDQNGVAIFKLYSKDTTNMAEWNKLVDKLLHEDQSPVLDIPPKAIPNKRDIVELNVEEFRDRWRKMTDVHQLHGIISELKINRHDAVKYVGNEFAHELKREAIEIMLNQVAQQEVPIMCFVGNKGCIQIFSGQIKNIKQMGPWLNVLDKKFHLHLLIPGIKNVWCVRKPTSDGHVTSLEVFDENDEMIIQFFGMRKEGQKEREDWRSLLNSLPQSHAVAVA”, the “soluble on expression in E. coli” value was “not soluble”.

With “MGSDKIHHHHHHMLQNRERTYSLPQPFYSDDRLFEIDMQEIFHKEWLIAGMTCEIPTKGNFLTLQIGKNPILVVRGPDGAVNAFHNVCRHRGSRLCTAEKGKVAKLVCHYHQWTYELDGRLLYAGTEMGDDFDMKQFGLKPVHVKTAGGYIFISLAENPPAIDEFLATLKHYMEPYDMENTKVAVQTTLMEKANWKLVLENNRECYHCGGAHPELLKTLLEWDDVTDPRADQAFKDHVAASAAAWDAEKIPYAHASFGLRNRIVRMPLLKGTVSMTMDGKVGCKKLMGRIQNPELGSMRILHLPHSWNHCMGDHIIVFTVWPISAQETMVSTKWIVHKDAVEGVDYDVARMRQVWDATNDQDRRLAEENQRGINSTAYQPGPYSKTYEFGVVNFIDWYSARMLENLGAEPAPYLKGVAVNHE” the “soluble on expression in E. coli” value was “not soluble”.
